# Laboratory results as given in patent US20240018188A1.
# [ ]: non-standard residue; d: D form. 2Nal = N[C@@H](Cc1ccc2ccccc2c1)C(=O)O; dNle = CCCC[C@@H](N)C(=O)O; βAla = NCCC(=O)O
# Biological target: human RAD51 (human) (UniProt Q06609)
# Assay: cell-based or functional assay
# human RAD51 (human), sequence (Q06609 2-339 limits assumed): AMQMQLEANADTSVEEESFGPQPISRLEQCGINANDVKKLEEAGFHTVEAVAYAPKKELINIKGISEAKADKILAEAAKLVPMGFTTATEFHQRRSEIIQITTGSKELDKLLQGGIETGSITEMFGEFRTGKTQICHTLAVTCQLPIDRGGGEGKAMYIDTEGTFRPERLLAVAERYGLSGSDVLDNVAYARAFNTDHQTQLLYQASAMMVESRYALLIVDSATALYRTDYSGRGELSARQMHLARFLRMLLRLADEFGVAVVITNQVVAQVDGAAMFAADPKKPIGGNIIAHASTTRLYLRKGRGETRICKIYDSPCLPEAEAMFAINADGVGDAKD
row,Binder,IC50 [µM]
1,Ac-[dL][dNle][dR][dS][dV][dR][dL][dR][dV][βAla][dL][dR][dK][dR][dR][dR][dR][dR]G[2Nal]-NH2 (SMILES CCCC[C@@H](NC(=O)[C@@H](CC(C)C)NC(C)=O)C(=O)N[C@H](CCCNC(=N)N)C(=O)N[C@H](CO)C(=O)N[C@@H](C(=O)N[C@H](CCCNC(=N)N)C(=O)N[C@H](CC(C)C)C(=O)N[C@H](CCCNC(=N)N)C(=O)N[C@@H](C(=O)NCCC(=O)N[C@H](CC(C)C)C(=O)N[C@H](CCCNC(=N)N)C(=O)N[C@H](CCCCN)C(=O)N[C@H](CCCNC(=N)N)C(=O)N[C@H](CCCNC(=N)N)C(=O)N[C@H](CCCNC(=N)N)C(=O)N[C@H](CCCNC(=N)N)C(=O)N[C@H](CCCNC(=N)N)C(=O)NCC(=O)N[C@@H](Cc1ccc2ccccc2c1)C(N)=O)C(C)C)C(C)C) [Compound 17],20
2,Ac-[dL][dNle][dR][dS][dR][dR][dL][dR][dV]G[dL][dR][dK][dR][dR][dR][dR][dR]G[2Nal]-NH2 (SMILES CCCC[C@@H](NC(=O)[C@@H](CC(C)C)NC(C)=O)C(=O)N[C@H](CCCNC(=N)N)C(=O)N[C@H](CO)C(=O)N[C@H](CCCNC(=N)N)C(=O)N[C@H](CCCNC(=N)N)C(=O)N[C@H](CC(C)C)C(=O)N[C@H](CCCNC(=N)N)C(=O)N[C@@H](C(=O)NCC(=O)N[C@H](CC(C)C)C(=O)N[C@H](CCCNC(=N)N)C(=O)N[C@H](CCCCN)C(=O)N[C@H](CCCNC(=N)N)C(=O)N[C@H](CCCNC(=N)N)C(=O)N[C@H](CCCNC(=N)N)C(=O)N[C@H](CCCNC(=N)N)C(=O)N[C@H](CCCNC(=N)N)C(=O)NCC(=O)N[C@@H](Cc1ccc2ccccc2c1)C(N)=O)C(C)C) [Compound 14],3500

# More lines, now with the values ahead:
row,IC50 [µM],Binder
1,17,Ac-[dL][dNle][dR]G[dV][dR][dL][dR][dV]G[dL][dR][dK][dR][dR][dR][dR][dR]G[2Nal]-NH2 (SMILES CCCC[C@@H](NC(=O)[C@@H](CC(C)C)NC(C)=O)C(=O)N[C@H](CCCNC(=N)N)C(=O)NCC(=O)N[C@@H](C(=O)N[C@H](CCCNC(=N)N)C(=O)N[C@H](CC(C)C)C(=O)N[C@H](CCCNC(=N)N)C(=O)N[C@@H](C(=O)NCC(=O)N[C@H](CC(C)C)C(=O)N[C@H](CCCNC(=N)N)C(=O)N[C@H](CCCCN)C(=O)N[C@H](CCCNC(=N)N)C(=O)N[C@H](CCCNC(=N)N)C(=O)N[C@H](CCCNC(=N)N)C(=O)N[C@H](CCCNC(=N)N)C(=O)N[C@H](CCCNC(=N)N)C(=O)NCC(=O)N[C@@H](Cc1ccc2ccccc2c1)C(N)=O)C(C)C)C(C)C) [Compound 12]
2,43,Ac-[dL][dNle][dR][dS][dV][dR][dL][dR][dNle]G[dL][dR][dK][dR][dR][dR][dR][dR]G[2Nal]-NH2 (SMILES CCCC[C@@H](NC(=O)[C@@H](CCCNC(=N)N)NC(=O)[C@@H](CC(C)C)NC(=O)[C@@H](CCCNC(=N)N)NC(=O)[C@H](NC(=O)[C@@H](CO)NC(=O)[C@@H](CCCNC(=N)N)NC(=O)[C@@H](CCCC)NC(=O)[C@@H](CC(C)C)NC(C)=O)C(C)C)C(=O)NCC(=O)N[C@H](CC(C)C)C(=O)N[C@H](CCCNC(=N)N)C(=O)N[C@H](CCCCN)C(=O)N[C@H](CCCNC(=N)N)C(=O)N[C@H](CCCNC(=N)N)C(=O)N[C@H](CCCNC(=N)N)C(=O)N[C@H](CCCNC(=N)N)C(=O)N[C@H](CCCNC(=N)N)C(=O)NCC(=O)N[C@@H](Cc1ccc2ccccc2c1)C(N)=O) [Compound 16]
